Data taken from the supplement of paper PMC5998384.

How the values were obtained:
HeLa Kyoto [1] = test: solubility in G1/S (NP-40 vs SDS abundance) (log2 ratio); higher = more soluble; details: cell cycle stage: G1/S
HeLa Kyoto [2] = test: melting temperature (median over replicates), in situ; higher = more thermally stable
HeLa Kyoto [3] = test: solubility change mitosis vs G1/S (difference of NP-40 vs SDS log2 ratios) (log2 ratio difference); higher = more soluble in mitosis
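For melting temperature (median over replicates), in situ in this document: HeLa Kyoto cells synchronized by double thymidine or nocodazole block, proteins quantified by TMT10plex mass spectrometry, three independent biological replicates.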
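For solubility change mitosis vs G1/S (difference of NP-40 vs SDS log2 ratios) in this document: synchronized HeLa Kyoto cells (double thymidine block for G1/S, nocodazole release for mitosis), protein amounts in NP-40 versus SDS lysates quantified by mass spectrometry, three biological replicates.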
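For solubility in G1/S (NP-40 vs SDS abundance) in this document: HeLa Kyoto cells arrested at G1/S by double thymidine block, proteins quantified by TMT10plex mass spectrometry in mild NP-40 versus SDS extracts, three biological replicates.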

Sequence	solubility in G1/S (log2) (HeLa Kyoto [1])	melting temperature (HeLa Kyoto [2]; cell cycle stage: G1/S) [°C]	melting temperature (HeLa Kyoto [2]; cell cycle stage: mitosis) [°C]	solubility change mitosis (log2) (HeLa Kyoto [3])
MEDPFEEADQPTTEPGMVLDSVEAGDTTPPTKRKSKFSGFGKIFKPWKWRKKKSSDKFKETSEVLERKISMRKPREELVKRGVLLEDPEQGGEDPGKPSDAMLKNGHTTPIGNARSSSPVQVEEEPVRLASLRKAIPEEDLKKRLGSTGSQPNSEAESVPENVPKPPLLPPKRPLSSSHEASEGQAKDATSSGGTARFIISTSITTAPAATTAATSLAKTVNLSVTPSPAPRTLPAAPASTNTTATPSLTHMVPAKQPPIPPPKPAHRNSNPVIAELSQAINSGTLLSKPSPPLPPKRGIPSTSVPTLESAAAITTKTPSDEREKSTCSMGSELLPMISPRSPSPPLPTHIPPEPPRTPPFPAKTFQVVPEIEFPPSLDLHQEIPQQEDQKKEVPKRILDQNFGEPHIPSRLPPLPLHIRIQQALTSPLPMTPILEGSHRAHSLLFENSDSFSEDSSTLGRTRSLPITIEMLKVPDDEEEEEQTCPSTFSEEMTPTSVIPKLPQCLREEEEKESDSDSEGPIQYRDEEDEDESYQSALANKVKRKDTLAMKLNHRPSEPELNLNSWPCKSKEEWNEIRHQIGNTLIRRLSQRPTPEELEQRNILQPKNEADRQAEKREIKRRLTRKLSQRPTVAELLARKILRFNEYVEVTDAQDYDRRADKPWTKLTPADKAAIRKELNEFKSSEMEVHEESKHFTRYHRP [PHACTR4]	0.401	54.3	54.9	0.0651
MEESEPERKRARTDEVPAGGSRSEAEDEDDEDYVPYVPLRQRRQLLLQKLLQRRRKGAAEEEQQDSGSEPRGDEDDIPLGPQSNVSLLDQHQHLKEKAEARKESAKEKQLKEEEKILESVAEGRALMSVKEMAKGITYDDPIKTSWTPPRYVLSMSEERHERVRKKYHILVEGDGIPPPIKSFKEMKFPAAILRGLKKKGIHHPTPIQIQGIPTILSGRDMIGIAFTGSGKTLVFTLPVIMFCLEQEKRLPFSKREGPYGLIICPSRELARQTHGILEYYCRLLQEDSSPLLRCALCIGGMSVKEQMETIRHGVHMMVATPGRLMDLLQKKMVSLDICRYLALDEADRMIDMGFEGDIRTIFSYFKGQRQTLLFSATMPKKIQNFAKSALVKPVTINVGRAGAASLDVIQEVEYVKEEAKMVYLLECLQKTPPPVLIFAEKKADVDAIHEYLLLKGVEAVAIHGGKDQEERTKAIEAFREGKKDVLVATDVASKGLDFPAIQHVINYDMPEEIENYVHRIGRTGRSGNTGIATTFINKACDESVLMDLKALLLEAKQKVPPVLQVLHCGDESMLDIGGERGCAFCGGLGHRITDCPKLEAMQTKQVSNIGRKDYLAHSSMDF [DDX41]	-0.425	47.5	49	0.325
MEGGFGSDFGGSGSGKLDPGLIMEQVKVQIAVANAQELLQRMTDKCFRKCIGKPGGSLDNSEQKCIAMCMDRYMDAWNTVSRAYNSRLQRERANM [TIMM13]	-0.594	53.8		0.337
MEKIEEQFANLHIVKCSLGTKEPTYLLGIDTSKTVQAGKENLVAVLCSNGSIRIYDKERLNVLREFSGYPGLLNGVRFANSCDSVYSACTDGTVKCWDARVAREKPVQLFKGYPSNIFISFDINCNDHIICAGTEKVDDDALLVFWDARMNSQNLSTTKDSLGAYSETHSDDVTQVRFHPSNPNMVVSGSSDGLVNVFDINIDNEEDALVTTCNSISSVSCIGWSGKGYKQIYCMTHDEGFYWWDLNHLDTDEPVTRLNIQDVREVVNMKEDALDYLIGGLYHEKTDTLHVIGGTNKGRIHLMNCSMSGLTHVTSLQGGHAATVRSFCWNVQDDSLLTGGEDAQLLLWKPGAIEKTFTKKESMKIASSVHQRVRVHSNDSYKRRKKQ [WDR89]	-1.26	57.4	55.9	0.369
MEPAVSLAVCALLFLLWVRLKGLEFVLIHQRWVFVCLFLLPLSLIFDIYYYVRAWVVFKLSSAPRLHEQRVRDIQKQVREWKEQGSKTFMCTGRPGWLTVSLRVGKYKKTHKNIMINLMDILEVDTKKQIVRVEPLVTMGQVTALLTSIGWTLPVLPELDDLTVGGLIMGTGIESSSHKYGLFQHICTAYELVLADGSFVRCTPSENSDLFYAVPWSCGTLGFLVAAEIRIIPAKKYVKLRFEPVRGLEAICAKFTHESQRQENHFVEGLLYSLDEAVIMTGVMTDEAEPSKLNSIGNYYKPWFFKHVENYLKTNREGLEYIPLRHYYHRHTRSIFWELQDIIPFGNNPIFRYLFGWMVPPKISLLKLTQGETLRKLYEQHHVVQDMLVPMKCLQQALHTFQNDIHVYPIWLCPFILPSQPGLVHPKGNEAELYIDIGAYGEPRVKHFEARSCMRQLEKFVRSVHGFQMLYADCYMNREEFWEMFDGSLYHKLREKLGCQDAFPEVYDKICKAARH [DHCR24]	-0.264	51.3	52.3	-0.166
MEQPWPPPGPWSLPRAEGEAEEESDFDVFPSSPRCPQLPGGGAQMYSHGIELACQKQKEFVKSSVACKWNLAEAQQKLGSLALHNSESLDQEHAKAQTAVSELRQREEEWRQKEEALVQREKMCLWSTDAISKDVFNKSFINQDKRKDTEDEDKSESFMQKYEQKIRHFGMLSRWDDSQRFLSDHPYLVCEETAKYLILWCFHLEAEKKGALMEQIAHQAVVMQFIMEMAKNCNVDPRGCFRLFFQKAKAEEEGYFEAFKNELEAFKSRVRLYSQSQSFQPMTVQNHVPHSGVGSIGLLESLPQNPDYLQYSISTALCSLNSVVHKEDDEPKMMDTV [CDC37L1]	0.655	46.3	50.9	-0.0113
METPGASASSLLLPAASRPPRKREAGEAGAATSKQRVLDEEEYIEGLQTVIQRDFFPDVEKLQAQKEYLEAEENGDLERMRQIAIKFGSALGKMSREPPPPYVTPATFETPEVHAGTGVVGNKPRPRGRGLEDGEAGEEEEKEPLPSLDVFLSRYTSEDNASFQEIMEVAKERSRARHAWLYQAEEEFEKRQKDNLELPSAEHQAIESSQASVETWKYKAKNSLMYYPEGVPDEEQLFKKPRQVVHKNTRFLRDPFSQALSRCQLQQAAALNAQHKQGKVGPDGKELIPQESPRVGGFGFVATPSPAPGVNESPMMTWGEVENTPLRVEGSETPYVDRTPGPAFKILEPGRRERLGLKMANEAAAKNRAKKQEALRRVTENLASLTPKGLSPAMSPALQRLVSRTASKYTDRALRASYTPSPARSTHLKTPASGLQTPTSTPAPGSATRTPLTQDPASITDNLLQLPARRKASDFF [DGCR14]	0.334	50	52.4	0.458
MFVSDFRKEFYEVVQSQRVLLFVASDVDALCACKILQALFQCDHVQYTLVPVSGWQELETAFLEHKEQFHYFILINCGANVDLLDILQPDEDTIFFVCDTHRPVNVVNVYNDTQIKLLIKQDDDLEVPAYEDIFRDEEEDEEHSGNDSDGSEPSEKRTRLEEEIVEQTMRRRQRREWEARRRDILFDYEQYEYHGTSSAMVMFELAWMLSKDLNDMLWWAIVGLTDQWVQDKITQMKYVTDVGVLQRHVSRHNHRNEDEENTLSVDCTRISFEYDLRLVLYQHWSLHDSLCNTSYTAARFKLWSVHGQKRLQEFLADMGLPLKQVKQKFQAMDISLKENLREMIEESANKFGMKDMRVQTFSIHFGFKHKFLASDVVFATMSLMESPEKDGSGTDHFIQALDSLSRSNLDKLYHGLELAKKQLRATQQTIASCLCTNLVISQGPFLYCSLMEGTPDVMLFSRPASLSLLSKHLLKSFVCSTKNRRCKLLPLVMAAPLSMEHGTVTVVGIPPETDSSDRKNFFGRAFEKAAESTSSRMLHNHFDLSVIELKAEDRSKFLDALISLLS [CDC45]	-0.233	47.6	48.5	-0.126
MGAQFSKTAAKGEAAAERPGEAAVASSPSKANGQENGHVKVNGDASPAAAESGAKEELQANGSAPAADKEEPAAAGSGAASPSAAEKGEPAAAAAPEAGASPVEKEAPAEGEAAEPGSPTAAEGEAASAASSTSSPKAEDGATPSPSNETPKKKKKRFSFKKSFKLSGFSFKKNKKEAGEGGEAEAPAAEGGKDEAAGGAAAAAAEAGAASGEQAAAPGEEAAAGEEGAAGGDPQEAKPQEAAVAPEKPPASDETKAAEEPSKVEEKKAEEAGASAAACEAPSAAGPGAPPEQEAAPAEEPAAAAASSACAAPSQEAQPECSPEAPPAEAAE [MARCKS]	-0.36	55.6		0.579
MGDDQEDDFPRRLSESMEDLSLDLGALQGSEYLQDLGLGAPSHSQPGETPDSRPTGEEPGRDSLFSSLAGSQDLSRRRSWERSRSCSESWRRLSLDASAVDEEPCLPRTLASLALNLPGGGLKTWTQGCLSGGGTPAESPGKECDSPKKRGRSRSVPVSFYEIRSPEISPGLEVPTPPVQGLEPPVLECMEKDHVEPDHVLIVQQVLQELRQYHGARQRACMSASPGGAHSNLTWFEFLSESEDGAGKNEKSDKSTSVKRRLSCLRSRVTRQKEKGKSPAHLKDKGQDARERRECVNGHQLLQGTFSGPSSCPLCGKPFLSSASLKEHPRGTLLSDGSPALSRNVGMTVSQKGGPQPTPSPAGPGTQLGPITGEMDEADSAFLKFKQTADDSLSLTSPNTESIFVEDPYTASLRSEIESDGHEFEAESWSLAVDAAYAKKQKREVVKRQDVLYELMQTEVHHVRTLKIMLKVYSRALQEELQFSSKAIGRLFPCADDLLETHSHFLARLKERRQESLEEGSDRNYVIQKIGDLLVQQFSGENGERMKEKYGVFCSGHNEAVSHYKLLLQQNKKFQNLIKKIGNFSIVRRLGVQECILLVTQRITKYPVLVERIIQNTEAGTEDYEDLTQALNLIKDIISQVDAKVSECEKGQRLREIAGKMDLKSSSKLKNGLTFRKEDMLQRQLHLEGMLCWKTTSGRLKDILAILLTDVLLLLQEKDQKYVFASVDSKPPVISLQKLIVREVANEEKAMFLISASLQGPEMYEIYTSSKEDRNAWMAHIQRAVESCPDEEEGPFSLPEEERKVVEARATRLRDFQERLSMKDQLIAQSLLEKQQIYLEMAEMGGLEDLPQPRGLFRGGDPSETLQGELILKSAMSEIEGIQSLICRQLGSANGQAEDGGSSTGPPRRAETFAGYDCTNSPTKNGSFKKKVSSTDPRPRDWRGPPNSPDLKLSDSDIPGSSEESPQVVEAPGTESDPRLPTVLESELVQRIQTLSQLLLNLQAVIAHQDSYVETQRAAIQEREKQFRLQSTRGNLLLEQERQRNFEKQREERAALEKLQSQLRHEQQRWERERQWQHQELERAGARLQEREGEARQLRERLEQERAELERQRQAYQHDLERLREAQRAVERERERLELLRRLKKQNTAPGALPPDTLAEAQPPSHPPSFNGEGLEGPRVSMLPSGVGPEYAERPEVARRDSAPTENRLAKSDVPIQLLSATNQFQRQAAVQQQIPTKLAASTKGGKDKGGKSRGSQRWESSASFDLKQQLLLNKLMGKDESTSRNRRSLSPILPGRHSPAPPPDPGFPAPSPPPADSPSEGFSLKAGGTALLPGPPAPSPLPATPLSAKEDASKEDVIFF [ARHGEF18]	0.0647	51.9	51.1	-0.0175
MGEDAAQAEKFQHPGSDMRQEKPSSPSPMPSSTPSPSLNLGNTEEAIRDNSQVNAVTVLTLLDKLVNMLDAVQENQHKMEQRQISLEGSVKGIQNDLTKLSKYQASTSNTVSKLLEKSRKVSAHTRAVKERMDRQCAQVKRLENNHAQLLRRNHFKVLIFQEENEIPASVFVKQPVSGAVEGKEELPDENKSLEETLHTVDLSSDDDLPHDEEALEDSAEEKVEESRAEKIKRSSLKKVDSLKKAFSRQNIEKKMNKLGTKIVSVERREKIKKSLTSNHQKISSGKSSPFKVSPLTFGRKKVREGESHAENETKSEDLPSSEQMPNDQEEESFAEGHSEASLASALVEGEIAEEAAEKATSRGSNSGMDSNIDLTIVEDEEEESVALEQAQKVRYEGSYALTSEEAERSDGDPVQPAVLQVHQTS [SDPR]	-0.0681	53.9	53.4	0.043
